The values that follow come from US20230265198A1 (TWIST BIOSCIENCE, published 2023).

This test has as its target T1, neuropilin-1 (NRP1) on HEK293 cells overexpressing NRP1 (UniProt O14786 22-923, limits assumed).
T1 construct: whole, on cells
In words: flow cytometry, HEK293-NRP1 vs HEK293. (A flow cytometer gives signals particle by particle.)

Substitutions are numbered along the chain they refer to.

B1: NRP1-88 (VHH)
VHH: EVQLVESGGGLVQPGGSLRLSCAASGGIFSRYDMGWFRQAPGKEREFVATITSTGDTYADSVKGRFTISADNSKNTAYLQMNSLKPEDTAVYYCARLGGNSEYYYYYGMDVWGQGTLVTVSS
Take B1: the “100 nM FACS (MFI Ratio)” value came to 2.8.

B2: NRP1-37 (VHH)
VHH: EVQLVESGGGLVQPGGSLRLSCAASGRTFSIYAMGWFRQAPGKERELVAAISRTGGSTYYADSVKGRFTISADNSKNTAYLQMNSLKPEDTAVYYCAADRMYRPVGNQYDWGQGTLVTVSS
Take B2: the “100 nM FACS (MFI Ratio)” value was 8.8.

B3: NRP1-106 (VHH)
VHH: B2 VHH with D99R, M101I, Y102V, R103N, P104V, V105E, N107A, Q108Y, Y109R
Regarding B3, the “100 nM FACS (MFI Ratio)” value amounted to 2.2.

B4: NRP1-75 (VHH)
VHH: B2 VHH with F29I, I31V, S52N, T54S, G56K
In the case of B4, the “100 nM FACS (MFI Ratio)” value was determined as 4.2.

B5: NRP1-99 (VHH)
VHH: B2 VHH with F29S, S30N, L47F, T54S, S57L, T58K, Y59S
Take B5: the “100 nM FACS (MFI Ratio)” value stood at 0.8.

B6: NRP1-86 (VHH)
VHH: EVQLVESGGGLVQPGGSLRLSCAASGNIFINNAMGWFRQAPGKERELVAAITSSSGRRWYADSVKGRFTISADNSKNTAYLQMNSLKPEDTAVYYCAADRMYRPVGNQYDWGQGTLVTVSS
For the molecule B6, the “100 nM FACS (MFI Ratio)” value came out at 2.4.

B7: NRP1-81 (VHH)
VHH: B2 VHH with T28S, F29S, S30R, I31Y, L47F, S52R, R53W, G56M, S57N, Y59H
For the molecule B7, the “100 nM FACS (MFI Ratio)” value was 5.

B8: NRP1-47 (VHH)
VHH: B2 VHH with T28S, F29S, S30R, I31Y, L47F, S52K, R53W, T54S, G56T
Take B8: the “100 nM FACS (MFI Ratio)” value stood at 6.6.

B9: NRP1-114 (VHH)
VHH: B2 VHH with T28S, F29S, S30R, I31Y, L47F, S52R, R53W, T54S, S57T, Y59F
Take B9: the “100 nM FACS (MFI Ratio)” value is 8.7.

B10: NRP1-93 (VHH)
VHH: EVQLVESGGGLVQPGGSLRLSCAASGIPFRSRTMGWFRQAPGKEREFVATINTGGGTYADSVKGRFTISADNSKNTAYLQMNSLKPEDTAVYYCARHGDTYYYGSGTVRSLDYWGQGTLVTVSS
As for B10, the “100 nM FACS (MFI Ratio)” value was 1.4.

B11: NRP1-103 (VHH)
VHH: EVQLVESGGGLVQPGGSLRLSCAASGRTLSRYTMGWFRQAPGKERELVATITSGGSTGYADSVKGRFTISADNSKNTAYLQMNSLKPEDTAVYYCAKDKWGVRGEFDSWGQGTLVTVSS
Consider B11, for which the “100 nM FACS (MFI Ratio)” value came out at 6.2.

B12: NRP1-104 (VHH)
VHH: EVQLVESGGGLVQPGGSLRLSCAASGFSFDDYVMGWFRQAPGKEREFVARISTSGSWTGYADSVKGRFTISADNSKNTAYLQMNSLKPEDTAVYYCAINYSPGYPDHWGQGTLVTVSS
For the molecule B12, the “100 nM FACS (MFI Ratio)” value came to 6.2.

B13: NRP1-76 (VHH)
VHH: EVQLVESGGGLVQPGGSLRLSCAASGITFRRYAMGWFRQAPGKEREIVATIWWTFDAPYYADSVKGRFTISADNSKNTAYLQMNSLKPEDTAVYYCAAYQAGWGDWGQGTLVTVSS
Consider B13, for which the “100 nM FACS (MFI Ratio)” value was 3.1.

B14: NRP1-74 (VHH)
VHH: B13 VHH with I27S, F29L, R31D, A33T, I47F
Consider B14, for which the “100 nM FACS (MFI Ratio)” value was 5.8.

B15: NRP1-61 (VHH)
VHH: B13 VHH with I27R, R30S, I47W, T50G, W52S, F55G, D56G, A57I, P58T, A101R
For B15, the “100 nM FACS (MFI Ratio)” value worked out at 0.9.

B16: NRP1-83 (VHH)
VHH: B13 VHH with I27S, T28I, F29G, R31E, Y32V, I47L
Consider B16, for which the “100 nM FACS (MFI Ratio)” value came out at 6.9.

B17: NRP1-2 (VHH)
VHH: B13 VHH with I27G, R30T, R31K, Y32Q, A33T, I47F
B17: the “100 nM FACS (MFI Ratio)” value was found to be 15.7.

B18: NRP1-72 (VHH)
VHH: B13 VHH with I27R, I47F, W52S, T54S, F55G, D56A, A57L, P58T, Y59H, A101R
For the molecule B18, the “100 nM FACS (MFI Ratio)” value came to 3.

B19: NRP1-17 (VHH)
VHH: EVQLVESGGGLVQPGGSLRLSCAASGRFSRINSMGWFRQAPGKERELVAAIMWSGGSTKYADSVKGRFTISADNSKNTAYLQMNSLKPEDTAVYYCAAGSPSRLVNMWQYNWGQGTLVTVSS
Consider B19, for which the “100 nM FACS (MFI Ratio)” value is 1960.

B20: NRP1-91 (VHH)
VHH: EVQLVESGGGLVQPGGSLRLSCAASGNIFINNAMGWFRQAPGKERELVAAITSSSGRRWYADSVKGRFTISADNSKNTAYLQMNSLKPEDTAVYYCAAGSPSRLVNMWQYNWGQGTLVTVSS
On to B20, for which the “100 nM FACS (MFI Ratio)” value is 2.7.

B21: NRP1-41 (VHH)
VHH: B19 VHH with L47S, M52S, S54N, T58I, K59Y
With B21, the “100 nM FACS (MFI Ratio)” value was found to be 6.1.

B22: NRP1-101 (VHH)
VHH: EVQLVESGGGLVQPGGSLRLSCAASGRNRYGMGWFRQAPGKEREFVAAISRSGGSTNYADSVKGRFTISADNSKNTAYLQMNSLKPEDTAVYYCAKGGAQNYTWGQGTLVTVSS
On to B22, for which the “100 nM FACS (MFI Ratio)” value was determined as 2.4.

B23: NRP1-102 (VHH)
VHH: EVQLVESGGGLVQPGGSLRLSCAASGGTIRTMGWFRQAPGKEREFVATISWSGALTHYADSVKGRFTISADNSKNTAYLQMNSLKPEDTAVYYCAHRDNFWSAYYDFWGQGTLVTVSS
As to B23, the “100 nM FACS (MFI Ratio)” value amounted to 2.5.

B24: NRP1-7 (VHH)
VHH: EVQLVESGGGLVQPGGSLRLSCAASGRIFIIYAMGWFRQAPGKERELVAAITRTGGRPCYADSVKGRFTISADNSKNTAYLQMNSLKPEDTAVYYCAARRMLSPEGAHPDWGQGTLVTVSS
Take B24: the “100 nM FACS (MFI Ratio)” value stood at 233.

B25: NRP1-87 (VHH)
VHH: EVQLVESGGGLVQPGGSLRLSCAASGRIFTMGWFRQAPGKEREFVASITTDGNTLYADSVKGRFTISADNSKNTAYLQMNSLKPEDTAVYYCARWVGASAYHYGMDVWGQGTLVTVSS
B25: the “100 nM FACS (MFI Ratio)” value came out at 3.7.

B26: NRP1-89 (VHH)
VHH: EVQLVESGGGLVQPGGSLRLSCAASGINFSRYGMGWFRQAPGKEREWVSAISSGGGSITTYADSVKGRFTISADNSKNTAYLQMNSLKPEDTAVYYCARHNSGWHFDYWGQGTLVTVSS
As to B26, the “100 nM FACS (MFI Ratio)” value amounted to 1.8.

B27: NRP1-85 (VHH)
VHH: EVQLVESGGGLVQPGGSLRLSCAASGSRFSGRFNILNMGWFRQAPGKERESVAAINWSGGTSTYYADSVKGRFTISADNSKNTAYLQMNSLKPEDTAVYYCAAGSNIGGSRWRYDWGQGTLVTVSS
As for B27, the “100 nM FACS (MFI Ratio)” value was determined as 5.

B28: NRP1-50 (VHH)
VHH: EVQLVESGGGLVQPGGSLRLSCAASGRTFNRYPMGWFRQAPGKEREWVAAISTSGGSTYYADSVKGRFTISADNSKNTAYLQMNSLKPEDTAVYYCAIHTSREIWGQGTLVTVSS
Turning to B28, the “100 nM FACS (MFI Ratio)” value was determined as 5.9.

B29: NRP1-45 (VHH)
VHH: B28 VHH with I51A, S52H, T53W, S57R, T58M, Y59W
In the case of B29, the “100 nM FACS (MFI Ratio)” value stood at 6.6.

B30: NRP1-95 (VHH)
VHH: B28 VHH with V48I, A49S, I51L, S52A, T53P, S54G, S57N, T58R
For the molecule B30, the “100 nM FACS (MFI Ratio)” value is 1.5.

B31: NRP1-98 (VHH)
VHH: EVQLVESGGGLVQPGGSLRLSCAASGLNLSRLDMGWFRQAPGKEREFVAAISWSGDSTNYADSVKGRFTISADNSKNTAYLQMNSLKPEDTAVYYCARIHKAPYYGMDVWGQGTLVTVSS
Take B31: the “100 nM FACS (MFI Ratio)” value is 1.2.

B32: NRP1-92 (VHH)
VHH: EVQLVESGGGLVQPGGSLRLSCAASGLLFSSYDMGWFRQAPGKEREFVAAITSGGRKNYADSVKGRFTISADNSKNTAYLQMNSLKPEDTAVYYCARYDYSGGLTFDYWGQGTLVTVSS
In the case of B32, the “100 nM FACS (MFI Ratio)” value was 6.

B33: NRP1-90 (VHH)
VHH: EVQLVESGGGLVQPGGSLRLSCAASGGIFSINDMGWFRQAPGKEREFVARITSGGSTNYADSVKGRFTISADNSKNTAYLQMNSLKPEDTAVYYCAKADYYDSSDFDSWGQGTLVTVSS
Consider B33, for which the “100 nM FACS (MFI Ratio)” value worked out at 1.

B34: NRP1-94 (VHH)
VHH: EVQLVESGGGLVQPGGSLRLSCAASGRTFSTYASMGWFRQAPGKEREFVARIWPGGSTYYADSVKGRFTISADNSKNTAYLQMNSLKPEDTAVYYCARQFGAWLGEVVGPMDVWGQGTLVTVSS
As for B34, the “100 nM FACS (MFI Ratio)” value stood at 2.8.

B35: NRP1-97 (VHH)
VHH: EVQLVESGGGLVQPGGSLRLSCAASGFDFDNFDDYAMGWFRQAPGKEREFVAEIGWRDTTLYADSVKGRFTISADNSKNTAYLQMNSLKPEDTAVYYCARGRYDLSDFDYWGQGTLVTVSS
Turning to B35, the “100 nM FACS (MFI Ratio)” value came out at 1.7.
